Measurements as given in patent US20060134709A1.
Each block holds one substance with its values, some of them ahead of it.

Assays:
C1q = experiment: BIAcore; 2B6 captured on soluble CD32B (2bLAvi) on a CM-5 chip, C1q injected
[1] = target: soluble FcγRIIIA tetrameric complex (human) (UniProt P08637); experiment: FACS titration of tetramer, 1.4 to 0.0006 µM
[2] = target: FcγRIIB-Fc fusion protein (human) (UniProt P31994); experiment: BIAcore
[3] = target: soluble monomeric FcγRIIIA-linker-AVITAG (human) (UniProt P08637); experiment: BIAcore
FcγRIIIA 158V (human) = FcγRIIIA 158V (human) (UniProt P08637); experiment: BIAcore
[4] = target: soluble monomeric FcγRIIIA-linker-AVITAG (human) (UniProt P08637); experiment: ELISA
[5] = target: soluble monomeric FcγRIIIA-linker-AVITAG (human) (UniProt P08637); experiment: ELISA of FcγRIIIA binding; OD listed beside the sensorgrams
[6] = target: soluble monomeric FcγRIIIA-linker-AVITAG (human) (UniProt P08637); experiment: BIAcore: ch4-4-20 captured on BSA-FITC, FcγRIIIA at 200 nM and 800 nM, separate fits, average of the two concentrations
[7] = target: FcγRIIB-Fc fusion protein (human) (UniProt P31994); experiment: BIAcore: ch4-4-20 captured on BSA-FITC, FcγRIIB-Fc at two concentrations, separate fits, average of the two
[8] = target: FcγRIIB-Fc fusion protein (human) (UniProt P31994); experiment: ELISA of FcγRIIB-Fc binding; OD listed beside the sensorgrams
[9] = target: FcγRIIB-Fc fusion protein (human) (UniProt P31994); experiment: ELISA
soluble FcγRIIB (human) = soluble FcγRIIB (human) (UniProt P31994); experiment: ELISA
[10] = target: FcγRIIB-Fc fusion protein (human) (UniProt P31994); experiment: BIAcore; remark: listed apart in the source
monomeric human IgG [11] = experiment: direct ELISA on plate-coated human IgG, detection with DJ130c and anti-mouse peroxidase
monomeric human IgG [12] = experiment: ELISA

Substance: 2B6 (panel FIG. 34B-1) (antibody)
koff (C1q): 0.13 s⁻¹

Substance: 2B6 (panel FIG. 34B-2) (antibody)
Kd (C1q): 7 nM
koff (C1q): 0.06 s⁻¹

Substance: Aga2p-CH1-CH3 fusion (pYD-CH1), wild type Fc on yeast
Kd [1]: 6 nM

Substance: ch4-4-20 A330V (antibody)
Koff WT/Mut [2]: 0.61

Substance: ch4-4-20 E233G (antibody)
Koff WT/Mut [2]: 0.54

Substance: ch4-4-20 F243I, V379L (antibody)
Kd [3]: 99.7 nM
koff [3]: 0.105 s⁻¹
Kd [2]: 120 nM
koff [2]: 0.113 s⁻¹

Substance: ch4-4-20 F243I, V379L, G420V (antibody)
Kd [2]: 93.4 nM
koff [2]: 0.101 s⁻¹

Substance: ch4-4-20 F243L, R255L (antibody)
ELISA, OD [5]: 0.37 OD
Kd [6]: 91.8 nM
koff [6]: 0.073 s⁻¹
Kd [7]: 82.3 nM
koff [7]: 0.1 s⁻¹
ELISA, OD [8]: 0.1 OD
Kd [3]: 90 nM
koff [3]: 0.075 s⁻¹
Kd [2]: 74.7 nM
koff [2]: 0.09 s⁻¹
fold vs wt [4]: 1 x

Substance: ch4-4-20 F372Y (antibody)
ELISA, OD [5]: 1 OD
Kd [6]: 84.8 nM
ELISA, OD [9]: 1.55 OD

Substance: ch4-4-20 H268N, P396L (antibody)
Kd [3]: 178 nM
koff [3]: 0.159 s⁻¹
Koff WT/Mut (FcγRIIIA 158V (human)): 0.92
Kd [2]: 46.6 nM
Koff WT/Mut [2]: 1.04
koff [2]: 0.036 s⁻¹
fold increase vs wt (soluble FcγRIIB (human)): 4.5 x
fold vs wt (soluble FcγRIIB (human)): 4.5 X
fold increase vs wt [4]: 2.2 x
fold vs wt [4]: 2.2 X

Substance: ch4-4-20 K246I, K334N (antibody)
ELISA, OD [5]: 0.75 OD
Kd [6]: 100 nM
Kd [10]: 45.3 nM

Substance: ch4-4-20 K261N, K210M, P396L (antibody)
Koff WT/Mut (FcγRIIIA 158V (human)): 1.29
Koff WT/Mut [2]: 0.85
fold increase vs wt (soluble FcγRIIB (human)): 4.2 x
fold increase vs wt [4]: 2 x

Substance: ch4-4-20 K288M, K334E (antibody)
ELISA, OD [8]: 0.13 OD
Kd [3]: 75.4 nM
koff [3]: 0.1 s⁻¹
kon [3]: 1.37e+06 M⁻¹ s⁻¹
Kd [2]: 95.6 nM
koff [2]: 0.089 s⁻¹
ELISA, OD [4]: 1.1 OD
fold increase vs wt [4]: 3 x
fold vs wt [4]: 3 X

Substance: ch4-4-20 K326E (antibody)
Kd [10]: 51.7 nM
koff [10]: 0.043 s⁻¹
Kd [3]: 92 nM
koff [3]: 0.112 s⁻¹
kon [3]: 1.23e+06 M⁻¹ s⁻¹
fold increase vs wt (soluble FcγRIIB (human)): 3.5 x
ELISA, OD [4]: 1 OD
fold increase vs wt [4]: 2 x
ELISA, OD [9]: 1.25 OD

Substance: ch4-4-20 K334E, T359N, T366S (antibody)
Kd [3]: 55.2 nM
koff [3]: 0.128 s⁻¹
Kd [2]: 72 nM
koff [2]: 0.11 s⁻¹
fold increase vs wt [4]: 1.5 x
fold vs wt [4]: 1.5 X

Substance: ch4-4-20 K392T, P396L (antibody)
Kd [3]: 84 nM
koff [3]: 0.104 s⁻¹
Koff WT/Mut (FcγRIIIA 158V (human)): 1.64
Kd [2]: 50 nM
Koff WT/Mut [2]: 2.3
koff [2]: 0.041 s⁻¹
fold increase vs wt (soluble FcγRIIB (human)): 2.5 x
fold vs wt (soluble FcγRIIB (human)): 2.5 X
fold increase vs wt [4]: 4.5 x
fold vs wt [4]: 4.5 X

Substance: ch4-4-20 N276Y (antibody)
Koff WT/Mut [2]: 0.64

Substance: ch4-4-20 P247L, N421K (antibody)
Kd [3]: 62 nM
koff [3]: 0.108 s⁻¹
Kd [2]: 66 nM
koff [2]: 0.065 s⁻¹
fold increase vs wt [4]: 3 x
fold vs wt [4]: 3 X

Substance: ch4-4-20 S298N, S407R (antibody)
fold increase vs wt (soluble FcγRIIB (human)): 7 x
fold increase vs wt [4]: 0.5 x

Substance: ch4-4-20 S375C, P396L (antibody)
fold increase vs wt (soluble FcγRIIB (human)): 4.5 x
fold increase vs wt [4]: 1.5 x

Substance: ch4-4-20 S407I (antibody)
fold increase vs wt (soluble FcγRIIB (human)): 4 x
fold increase vs wt [4]: 0.5 x

Substance: ch4-4-20 S408I, V215I, V125L (antibody)
fold increase vs wt (soluble FcγRIIB (human)): 0.75 x
fold increase vs wt [4]: 0.5 x

Substance: ch4-4-20 S415I, L251F (antibody)
fold increase vs wt (soluble FcγRIIB (human)): 0.75 x
fold increase vs wt [4]: 0.5 x

Substance: ch4-4-20 T225S (antibody)
fold decrease vs wt (soluble FcγRIIB (human)): 0.5 x
fold decrease vs wt [4]: 0.25 x

Substance: ch4-4-20 T250S, P396L (antibody)
fold increase vs wt (soluble FcγRIIB (human)): 6.8 x
fold increase vs wt [4]: 1.5 x

Substance: ch4-4-20 V215I, K290V, P396L (antibody)
fold increase vs wt (soluble FcγRIIB (human)): 4.6 x
fold increase vs wt [4]: 2.2 x

Substance: ch4-4-20 V273I, K326E, L328I, P396L (antibody)
fold increase vs wt (soluble FcγRIIB (human)): 10.8 x
fold increase vs wt [4]: 1.3 x

Substance: ch4-4-20 V303I, P396L (antibody)
fold increase vs wt (soluble FcγRIIB (human)): 4 x
fold increase vs wt [4]: 1.1 x

Substance: ch4-4-20 V305L, P396L (antibody)
fold increase vs wt (soluble FcγRIIB (human)): 5.5 x
fold increase vs wt [4]: 1.3 x

Substance: ch4-4-20 V323I, P396L (antibody)
fold increase vs wt (soluble FcγRIIB (human)): 8.2 x
fold increase vs wt [4]: 1.1 x

Substance: ch4-4-20 V379M (antibody)
Kd [3]: 160 nM

Substance: ch4-4-20 V379M, P396L (antibody)
fold increase vs wt (soluble FcγRIIB (human)): 5.6 x
fold increase vs wt [4]: 1.9 x

Substance: ch4-4-20 Y319F, P352L, P396L (antibody)
Kd [3]: 125 nM
Kd [2]: 55.7 nM

Substance: soluble FcγRIIIA tetrameric complex (from UniProt P08637 17-203) (receptor)
EC50 (read off the curve) (monomeric human IgG [11]): 1 µg/mL
fold avidity vs monomeric receptor (monomeric human IgG [12]): 8 to 10 fold

Continued, values first:

Koff WT/Mut [2]: 0.62
Substance: ch4-4-20 A330V, G427M (antibody)

Kd [3]: 195 nM
koff [3]: 0.198 s⁻¹
Koff WT/Mut (FcγRIIIA 158V (human)): 0.86
Kd [2]: 86 nM
Koff WT/Mut [2]: 1.3
koff [2]: 0.074 s⁻¹
fold increase vs wt [4]: 0.4 x
fold vs wt [4]: 1.4 X
Substance: ch4-4-20 E293V, Q295E, A327T (antibody)

Kd [3]: 72 nM
koff [3]: 0.117 s⁻¹
Kd [2]: 46 nM
koff [2]: 0.06 s⁻¹
fold increase vs wt (soluble FcγRIIB (human)): 14 x
fold vs wt (soluble FcγRIIB (human)): 14 X
fold increase vs wt [4]: 1.5 x
fold vs wt [4]: 1.5 X
Substance: ch4-4-20 G316D, A378V, D399E (antibody)

Koff WT/Mut (FcγRIIIA 158V (human)): 0.977
Koff WT/Mut [2]: 1.03
Kd ([2]; Fc variant MGFc 37): 100 nM
koff ([2]; Fc variant MGFc 37): 0.091 s⁻¹
Kd ([2]; Fc variant MGFc 40): 110 nM
koff ([2]; Fc variant MGFc 40): 0.09 s⁻¹
Substance: ch4-4-20 K248M (antibody)

Kd [10]: 41.3 nM
Kd [2]: 33.4 nM
ELISA, OD [4]: 1 OD
ELISA, OD [9]: 1.2 OD
Substance: ch4-4-20 K288N, A330S, P396L (antibody)

Koff WT/Mut (FcγRIIIA 158V (human)): 1.27
Koff WT/Mut [2]: 0.89
fold increase vs wt (soluble FcγRIIB (human)): 2.3 x
fold increase vs wt [4]: 4.1 x
Substance: ch4-4-20 K288R, T307A, K344E, P396L (antibody)

ELISA, OD [8]: 0.1 OD
Kd [3]: 70.2 nM
koff [3]: 0.105 s⁻¹
kon [3]: 1.43e+06 M⁻¹ s⁻¹
Kd [2]: 108 nM
koff [2]: 0.107 s⁻¹
ELISA, OD [4]: 1.25 OD
Substance: ch4-4-20 K334E, R292L (antibody)

koff [6]: 0.173 s⁻¹
Kd [10]: 66.5 nM
koff [10]: 0.06 s⁻¹
Kd [3]: 264 nM
koff [3]: 0.175 s⁻¹
kon [3]: 667000 M⁻¹ s⁻¹
ELISA, OD [4]: 0.6 OD
ELISA, OD [9]: 0.35 OD
Substance: ch4-4-20 Mut 6 (S219V) (antibody)

Koff WT/Mut (FcγRIIIA 158V (human)): 1.17
Koff WT/Mut [2]: 0.95
fold increase vs wt (soluble FcγRIIB (human)): 4.5 x
fold increase vs wt [4]: 1.6 x
Substance: ch4-4-20 P217S, P396L (antibody)

Koff WT/Mut [2]: 0.67
Substance: ch4-4-20 R292G (antibody)

Koff WT/Mut [2]: 0.67
Substance: ch4-4-20 S298N, K360R, N361D (antibody)

fold increase vs wt (soluble FcγRIIB (human)): 4.7 x
fold increase vs wt [4]: 1.5 x
Substance: ch4-4-20 S400F, P396L (antibody)

fold increase vs wt (soluble FcγRIIB (human)): 6 x
fold increase vs wt [4]: 1 x
Substance: ch4-4-20 S400P (antibody)

fold increase vs wt (soluble FcγRIIB (human)): 4 x
fold increase vs wt [4]: 2 x
Substance: ch4-4-20 T215P, K274N, A287G, K334N, L365V, P396L (antibody)

fold increase vs wt (soluble FcγRIIB (human)): 6 x
fold increase vs wt [4]: 0.25 x
Substance: ch4-4-20 T223I, T256S, L406F (antibody)

fold increase vs wt (soluble FcγRIIB (human)): 4.2 x
fold increase vs wt [4]: 1.3 x
Substance: ch4-4-20 V240A, P396L (antibody)

fold decrease vs wt (soluble FcγRIIB (human)): 0.25 x
fold decrease vs wt [4]: 0.25 x
Substance: ch4-4-20 V240I, V281M (antibody)

fold increase vs wt (soluble FcγRIIB (human)): 7 x
fold increase vs wt [4]: 0.5 x
Substance: ch4-4-20 V282E, V369I, L406F (antibody)

fold increase vs wt (soluble FcγRIIB (human)): 0.75 x
fold increase vs wt [4]: 0.5 x
Substance: ch4-4-20 V348M, K334N, F275I, Y202M, K147T (antibody)

fold increase vs wt (soluble FcγRIIB (human)): 4.7 x
fold increase vs wt [4]: 1.9 x
Substance: ch4-4-20 V427A, P396L (antibody)

koff [7]: 0.0847 s⁻¹
Kd [10]: 61.4 nM
koff [10]: 0.085 s⁻¹
Kd [3]: 198 nM
Kd [2]: 94 nM
koff [2]: 0.094 s⁻¹
ELISA, OD [4]: 0.5 OD
ELISA, OD [9]: 0.4 OD
Substance: chimeric 4-4-20 antibody, wild type Fc
